Data set [1] deals with T1, Thrombin (Homo sapiens, UniProt P00734;P00734 P00734:328-363,P00734:364-622). Description: FP; 20 mM Tris, 140 mM NaCl, 20 mM KCl, 1 mM CaCl2, 1 mM MgCl2, 0.1% Triton X, room temperature.
Data set [2] deals with T1, Thrombin. Description: FP; no binding observed with up to 2 uM thrombin.

B1: TBA1F (ssDNA)
DNA: CGTCGAGGCCCCTTCTTCTTCGTCTTCTTCTTAGGAGGTGGTGTGGTTGGTTTTACACGTCACGCCTTTTTTTTT
modifications: branched DNA-encoded construct: code strand with branching unit BU; aptamer branch …
As for B1, the dissociation constant Kd (usually a measure of binding affinity in units of concentration) in data set [1] was 13 nM. This counts as double-digit nanomolar.

Regarding GGTTGGTGTTGTTTG (ssDNA) [NCS], the binding result in data set [2] is “no binding”.

B2: NCL (ssDNA)
DNA: CGTCGAGGCCCCTTCTTCTTCGTCTTCTTCTTAGGATACACGTCACGCCTTTTTTTTT
Regarding B2, the binding result in data set [2] was “no binding”.

GGTTGGTGTGGTTGG (ssDNA) [PC (positive control TBA 15mer)] showed a Kd in data set [1] of 10 nM.
